From publication PMC9482650, “Quantitative fragmentomics allow affinity mapping of interactomes” (Nature Communications, 2022) come the findings set out here.

What all share (test): holdup assay
What all share (design): key: below the threshold = too weak to quantify, mostly under pKd 3.1 to 4

The target in assay [1] is T1, GRIP1_2, Q9Y3R0.
T1 sequence (Q9Y3R0 145-248, limits assumed, looked up): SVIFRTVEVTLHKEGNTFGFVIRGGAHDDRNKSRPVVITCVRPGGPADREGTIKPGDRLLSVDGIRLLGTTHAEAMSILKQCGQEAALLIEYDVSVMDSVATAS

The target of assay [2] is T2, APBA1_1, Q02410.
T2 sequence (Q02410 651-752, limits assumed, looked up): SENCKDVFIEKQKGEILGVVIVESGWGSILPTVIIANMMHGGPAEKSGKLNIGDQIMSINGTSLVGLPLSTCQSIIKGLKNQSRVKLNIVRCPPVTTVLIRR

For assay [3], the target named is DLG1_3, Q12959.
In assay [4] the target is DLG1_1, Q12959.
Assay [5] deals with T3, TX1BP3, O14907.
T3 sequence (O14907 10-122, limits assumed, looked up): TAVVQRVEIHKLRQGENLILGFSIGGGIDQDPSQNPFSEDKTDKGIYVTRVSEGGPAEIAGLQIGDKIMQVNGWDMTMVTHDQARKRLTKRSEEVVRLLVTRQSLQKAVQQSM

The target of assay [6] is T4, APBA2_2, Q99767.
T4 sequence (Q99767 654-744, limits assumed, looked up): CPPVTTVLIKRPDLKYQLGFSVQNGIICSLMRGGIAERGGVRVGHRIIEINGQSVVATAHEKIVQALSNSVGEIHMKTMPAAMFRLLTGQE

For assay [7], the target named is T5, GRIP1_3, Q9Y3R0.
T5 sequence (Q9Y3R0 247-346, limits assumed, looked up): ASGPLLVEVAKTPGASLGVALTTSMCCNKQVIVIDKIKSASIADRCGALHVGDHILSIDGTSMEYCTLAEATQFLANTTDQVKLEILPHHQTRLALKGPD

The target in assay [8] is T6, SNTA1, Q13424.
T6 sequence (Q13424 82-180, limits assumed, looked up): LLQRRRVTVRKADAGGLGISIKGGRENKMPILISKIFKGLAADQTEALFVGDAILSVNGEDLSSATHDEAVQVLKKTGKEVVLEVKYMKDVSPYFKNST

In assay [9] the target is T7, DFNB31_3, Q9P202.
T7 sequence (Q9P202 811-907, limits assumed, looked up): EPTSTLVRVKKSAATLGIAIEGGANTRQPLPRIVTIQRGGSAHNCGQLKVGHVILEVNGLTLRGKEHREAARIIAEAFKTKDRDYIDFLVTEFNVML

For assay [10], the target named is T8, RAPGEF6, Q8TEU7.
T8 sequence (Q8TEU7 525-625, limits assumed, looked up): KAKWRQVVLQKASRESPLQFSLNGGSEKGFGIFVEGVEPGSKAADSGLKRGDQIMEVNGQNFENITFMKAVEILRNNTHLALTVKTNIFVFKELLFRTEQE

Assay [11] deals with Inadl_4, Q8NI35.
Inadl_4, Q8NI35, sequence (Q8NI35 547-651): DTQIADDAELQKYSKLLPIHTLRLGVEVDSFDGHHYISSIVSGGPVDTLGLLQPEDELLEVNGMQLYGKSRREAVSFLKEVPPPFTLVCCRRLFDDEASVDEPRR
Assay [12] has as its target Inadl_9, Q8NI35.
In assay [13] the target is T9, PDZD7_3, Q9H5P4.
T9 sequence (Q9H5P4 857-944, limits assumed, looked up): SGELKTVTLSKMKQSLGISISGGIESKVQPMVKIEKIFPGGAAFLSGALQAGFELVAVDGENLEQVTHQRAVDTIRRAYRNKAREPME

Assay [14] has as its target Inadl_3, Q8NI35.
The target of assay [15] is MAGI2_5, Q86UL8.
MAGI2_5, Q86UL8, sequence (Q86UL8 915-1017): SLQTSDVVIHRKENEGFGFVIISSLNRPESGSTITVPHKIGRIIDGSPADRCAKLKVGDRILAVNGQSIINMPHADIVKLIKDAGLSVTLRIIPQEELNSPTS
Assay [16] deals with T10, LIN7C, Q9NUP9.
T10 sequence (Q9NUP9 88-185, limits assumed, looked up): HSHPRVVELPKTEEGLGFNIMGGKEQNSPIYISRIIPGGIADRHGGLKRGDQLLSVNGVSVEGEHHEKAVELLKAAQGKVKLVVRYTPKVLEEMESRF

Assay [17] addresses T11, TIAM2, Q8IVF5.
T11 sequence (Q8IVF5 885-986, limits assumed, looked up): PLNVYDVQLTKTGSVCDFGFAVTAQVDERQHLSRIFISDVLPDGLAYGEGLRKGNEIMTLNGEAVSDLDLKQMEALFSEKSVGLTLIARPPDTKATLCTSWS

The target in assay [18] is MAGI1_2, Q96QZ7.
MAGI1_2, Q96QZ7, sequence (Q96QZ7 456-580): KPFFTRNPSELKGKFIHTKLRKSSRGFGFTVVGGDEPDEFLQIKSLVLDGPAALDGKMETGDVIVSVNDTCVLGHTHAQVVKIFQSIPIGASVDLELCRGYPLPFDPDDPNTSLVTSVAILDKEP
Assay [19] addresses T12, SYNJ2BP, P57105.
T12 sequence (P57105 8-110, limits assumed, looked up): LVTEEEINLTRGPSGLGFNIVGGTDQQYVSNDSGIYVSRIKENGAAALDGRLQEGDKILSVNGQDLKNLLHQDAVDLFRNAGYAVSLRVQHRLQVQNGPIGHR

The target in assay [20] is T13, APBA2_1, Q99767.
T13 sequence (Q99767 563-664, limits assumed, looked up): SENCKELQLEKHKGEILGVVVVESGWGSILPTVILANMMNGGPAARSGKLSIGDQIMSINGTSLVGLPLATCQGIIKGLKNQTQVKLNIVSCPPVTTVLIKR

The target of assay [21] is T14, HTRA4, P83105.
T14 sequence (P83105 378-476, limits assumed, looked up): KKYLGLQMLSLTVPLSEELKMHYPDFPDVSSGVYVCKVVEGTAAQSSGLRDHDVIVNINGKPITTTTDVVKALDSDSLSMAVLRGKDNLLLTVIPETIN

The target in assay [22] is DLG4_1, P78352.
DLG4_1, P78352, sequence (P78352 62-152): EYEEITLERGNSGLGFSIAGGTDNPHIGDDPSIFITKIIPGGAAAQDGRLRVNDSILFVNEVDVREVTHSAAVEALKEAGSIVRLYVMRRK
Setting [23] is: plain residues with an end cap or a label only (N-terminal biotin on a linker: ahx).
Where [24] appears, read: plain residues with an end cap or a label only (N-terminal biotin on a linker: ttds).

Inadl_3, Q8NI35, sequence (Q8NI35 359-469): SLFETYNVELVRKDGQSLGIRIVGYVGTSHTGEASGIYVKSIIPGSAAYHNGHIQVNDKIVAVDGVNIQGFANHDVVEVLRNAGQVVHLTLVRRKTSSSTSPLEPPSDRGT
Inadl_9, Q8NI35, sequence (Q8NI35 1530-1615): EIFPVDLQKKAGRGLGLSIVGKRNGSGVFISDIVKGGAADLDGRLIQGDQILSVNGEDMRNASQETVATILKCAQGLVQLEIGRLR

Take EKLSSIESDV [GRIN2B, Q13224]: the negative logarithm of the Kd (pKd) result was “below the threshold” in [1] (setting [23]); “below the threshold” in [2] (setting [23]); “below the threshold” in [3] (setting [23]); 4.3 in assay [4] (setting [23]); 4.74 in assay [5] (setting [23]); “below the threshold” in assay [6] (setting [23]). Also, the negative-log Kd (pKd) result is “below the threshold” in assay [7] (setting [23]); 4.39 in assay [8] (setting [23]); “below the threshold” in assay [9] (setting [23]); “below the threshold” in assay [10] (setting [23]); “below the threshold” in [11] (setting [23]); “below the threshold” in assay [12] (setting [23]). Further, the pKd is 3.77 in assay [13] (setting [23]); 3.91 in assay [14] (setting [23]); 3.82 in [15] (setting [23]); “below the threshold” in assay [16] (setting [23]); 3.71 in assay [17] (setting [23]); “below the threshold” in assay [18] (setting [23]). The negative logarithm of the Kd (pKd) is 4.4 in [19] (setting [23]), 3.53 in assay [20] (setting [23]), “below the threshold” in [21] (setting [23]) and 4.37 in assay [22] (setting [23]).
On to SEKHFRETEV [HTLV1-TAX1, P03409], for which the pKd result in assay [1] (setting [24]) was “below the threshold”; in assay [2] (setting [24]), “below the threshold”; in [3] (setting [24]), 5.22; in [4] (setting [24]) it was 5.19; in assay [5] (setting [24]), 6.2; in assay [6] (setting [24]) it was “below the threshold”. Further, the negative logarithm of the Kd (pKd) result in [7] (setting [24]) was “below the threshold”; in assay [8] (setting [24]), 5.9; in assay [9] (setting [24]), “below the threshold”; in assay [10] (setting [24]), “below the threshold”; in assay [11] (setting [24]) it was “below the threshold”; in [12] (setting [24]) it was “below the threshold”. Further, the pKd in assay [13] (setting [24]) was 4.82; in assay [14] (setting [24]), 3.69; in [15] (setting [24]), 4.84; in [16] (setting [24]), 4.59; in assay [17] (setting [24]), “below the threshold”; in assay [18] (setting [24]), 4.45. For the same molecule, the negative-log Kd (pKd) was 6.04 in assay [19] (setting [24]), “below the threshold” in assay [20] (setting [24]), “below the threshold” in assay [21] (setting [24]) and 5.22 in [22] (setting [24]).
As to VNKVWDQSSV [CIT, O14578], the pKd result was “below the threshold” in assay [1] (setting [24]); “below the threshold” in [2] (setting [24]); 3.49 in assay [3] (setting [24]); “below the threshold” in [4] (setting [24]); 6.25 in [5] (setting [24]); “below the threshold” in assay [6] (setting [24]). In addition, the pKd result in assay [7] (setting [24]), in assay [8] (setting [24]), in [9] (setting [24]), in assay [10] (setting [24]), in assay [11] (setting [24]) and in [12] (setting [24]) was “below the threshold” each time. Also, the pKd entry in assay [13] (setting [24]) is “below the threshold”; in assay [14] (setting [24]) it was “below the threshold”; in assay [15] (setting [24]), 3.7; in assay [16] (setting [24]), “below the threshold”; in assay [17] (setting [24]), “below the threshold”; in assay [18] (setting [24]), “below the threshold”. Moreover, the pKd in assay [19] (setting [24]) is 4.65; in [20] (setting [24]), “below the threshold”; in [21] (setting [24]), “below the threshold”; in assay [22] (setting [24]) it was “below the threshold”.

As usually defined, the pKd is −log10 of the Kd, conventionally taken in molar units.
